According to patent publication US20230265201A1 (published 2023):
Changes are numbered by the printed parent chain.

T1: recombinant human CD70 (Flag-TNC-CD70) (human, UniProt P32970 39-193)
T1 construct: extracellular domain; also called recombinant CD70; human Flag-TNC-CD70; not shown: Flag tag and TNC trimerisation domain
T1 sequence (looked up): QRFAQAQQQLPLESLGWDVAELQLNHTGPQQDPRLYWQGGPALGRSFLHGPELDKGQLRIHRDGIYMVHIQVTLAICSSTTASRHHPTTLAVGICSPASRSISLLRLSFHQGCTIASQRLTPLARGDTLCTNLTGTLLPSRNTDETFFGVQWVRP

T2: human CD70 on the surface of cells (human, UniProt P32970 1-193)
T2 sequence (looked up): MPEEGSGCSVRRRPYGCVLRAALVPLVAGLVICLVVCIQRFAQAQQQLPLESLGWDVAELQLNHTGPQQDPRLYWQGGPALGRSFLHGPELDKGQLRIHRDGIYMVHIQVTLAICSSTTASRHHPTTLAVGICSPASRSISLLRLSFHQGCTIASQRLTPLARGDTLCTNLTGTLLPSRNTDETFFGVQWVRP

T3: rhesus recombinant CD70 (FLAG-TNC-rhesus CD70) (rhesus macaque (Macaca mulatta), UniProt F7GPA5 174-316)
T3 construct: also called rhesus Flag-TNC-CD70; Rhesus monkey; not shown: Flag tag and TNC trimerisation domain
T3 sequence: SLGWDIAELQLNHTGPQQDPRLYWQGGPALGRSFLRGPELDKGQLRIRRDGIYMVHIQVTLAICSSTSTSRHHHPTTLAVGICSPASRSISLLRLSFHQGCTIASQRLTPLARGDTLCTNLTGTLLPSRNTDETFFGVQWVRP

B1: 53A2 mAb (human IgG1, HEK293) (antibody, V domains shown)
VH: EVQLVESGGGLVQPGGSLRLSCAASGFTFSVYYMNWVRQAPGKGLEWVSDINNEGGTTYYADSVKGRFTISRDNSKNSLYLQMNSLRAEDTAVYYCARDAGYSNHVPIFDSWGQGTLVTVSS
VL: QAVVTQEPSFSVSPGGTVTLTCGLKSGSVTSDNFPTWYQQTPGQAPRLLIYNTNTRHSGVPDRFSGSILGNKAALTITGAQADDEAEYFCALFISNPSVEFGGGTQLTVLG
B2: 41D12 mAb (human IgG1, HEK293) (antibody, V domains shown)
VH: B1 VH
VL: B1 VL with F10L, S11T
B3: 35G2 mAb (human IgG1, HEK293) (antibody, V domains shown)
VH: B1 VH with S75A, S78T, R87K, A88P
VL: B1 VL with A2T, D32T, T55S, E87D
B4: 40F1 mAb (human IgG1, HEK293) (antibody, V domains shown)
VH: B1 VH with T57A, L117Q
VL: B1 VL
B5: 53H1 mAb (human IgG1, HEK293) (antibody, V domains shown)
VH: B1 VH
VL: B1 VL with A2T
B6: 9D1 chimeric llama-human mAb (antibody, V domains shown)
VH: B1 VH with S75A, S78T, Y80T, R87K, A88P, V93L, A97V, L117Q, T119I, S121A
VL: QAVVTQEPSLSVSPGGTVTLTCGLSSGSVTSSHYPGWYQQTPGQAPRLLIFNTNSRHSGVPSRFSGSISGNKAALTITGAQPEDEADYYCALLNIDDGSTMFGGGTHLTVLG
notes: also called mAb 9D1
B7: 57B6 chimeric llama-human mAb (antibody, V domains shown)
VH: QLQLVESGGGLVQPGGSLRLSCAASGFSFSHYAMSWVRQAPGKGLEWVSGDNTYDGGTRYQDSVKGRFTISRDNGKNTLYLQMNSLKPEDTAVYYCAKDTGRGIMGEYGMDYWGKGTLVTVSS
VL: QTVVTQEPSLSVSPGGTVTLTCGLKSGSVTSSNYPAWYQQTPGQAPRLLIYNTNSRHSGVPSRFSGSISGNKAALTITGAQPEDEADYYCALYMGSGSANAMFGGGTHLTVLG
B8: 1C2 Fab (Fab, V domains shown)
VH: ELQVVESGGGLVQPGGSLRLSCAASGFTLSNYWMHWVRQAPRKGLEWVSTISTDNSRTYYADSVKGRFTISRDHAKNTLILQMNSLKSEDTAVYYCIRGSDYEHWGQGTQVTVSS
VL: QTVVTQEPSLSVSPGGTVTLTCGLSSGSVTTTNYPGWFQQTPGQAPRTLIYSTSSRHSGVPSRFSGSISGNKAALTITGAQPEDEADYYCALEEIGSYTYMFGGGTHLTVLG
notes: Llama-derived Fab from phage display; MYC tag at C-terminus of Fd
B9: 9D1 Fab (Fab, V domains shown)
VH: B1 VH with S75A, S78T, Y80T, R87K, A88P, V93L, A97V, L117Q, T119I, S121A
VL: B6 VL
notes: as for B8
B10: 9G2 Fab (Fab, V domains shown)
VH: QVQLVESGGGLMQPGGSLRLSCAASGFTFSSSAMSWVRQAPGKGLEWVSSIYSDSSYTYYADSVKSRFTISTDNAKNTLYLQMNSLKPDDTAVYYCAGSSDYEGSFASWGQGTQVTVSS
VL: QSVVTQPPSLSASPGSSVRLTCTLSSGNSVGNYDISWYQQKAGSPPRYLLYYYSDSVKHQGSGVPSRFSGSSDASANAGLLLISGLQPEDEADYYCSAYKSGSHVFGGGTKLTVLG
notes: as for B8
B11: 5F4 Fab (Fab, V domains shown)
VH: EVQVQESGGGLVHPGGSLKLSCAASGFTFDTYAMSWVRQAPGKGLEWVSAISWSGGETFYAESMKGRFTISRNNAKNTLYLQMNSLKSEDTAVYYCARGMGLAEGLTDWGQGTQVTVSS
VL: QAVVTHPPSLSASPGSSVRLTCTLISGDNIGGYDISWYQQKTGSPPRYLLYYYSDSYKHQSSGVPSRFSGSKDASANAGLLLISGLQSEDEADYYCSAYKSGSYKAPVFGGGTHLTVLG
notes: as for B8
B12: 9E1 Fab (Fab, V domains shown)
VH: EVQLQESGGGVVQPGGSLRLSCAASGFTFDDYAMSWVRQAPGKGLEWVSSIYMYDSSTYYADSVKGRFTISTDNAKNTVYLQMNSLKSEDTAVYYCAKDINRSYGSSWSHFGPIFSSWGQGTQVTVSS
VL: QAVVTQEPSLSVSPGGTVTLTCGLTSGSVTSSNYPDWYQQTPGQAPRLLIYNTNSRHSGVPSRFSGSISGNKAALTITGAQPEDEADYYCNLYMGSGGSKVFGGGTKLTVLG
notes: as for B8
B13: 9B2 Fab (Fab, V domains shown)
VH: B10 VH with V2L, L4V, S31G, D54H, S56M, G98A, S105L, A107V
VL: B10 VL with S2A, V4L, S25N, G27A, N32S, V57L, K58S, S72T, K100N, S101R
notes: as for B8
B14: 4D2 Fab (Fab, V domains shown)
VH: QVQLQESGPGLVKPSQTLSLACTVSGGSITTSYYYWSWIRQPPGKGLEWMGAIGSRGSTYYSPSLKTRTSISRDTSKNQFTLQLSSVTPEDTAVYYCARVTGEITYNSGSYYYTLNLFDYWGQGTQVTVSS
VL: QSVLTQPPSLSASPGSSVRLTCTLSSGNSVGNYDISWYQQKAGSPPRYLLYYYSDSYKNQGSGVPSRFSGSKDPSANAGLLLISGLQAEDEADYYCSVSNSGTYKPVFGGGSKLTVLG
notes: as for B8
B15: 57B6 Fab (Fab, V domains shown)
VH: B7 VH
VL: B7 VL
notes: as for B8

Key:
[1] = molecular target: T1, recombinant human CD70 (Flag-TNC-CD70); assay: CD27-CD70 inhibition ELISA, human Flag-TNC-CD70
[2] = molecular target: T1, recombinant human CD70 (Flag-TNC-CD70); assay: blocking ELISA of Example 19: CD27 Fc chimera on anti-Flag-captured Flag-TNC-CD70
[3] = molecular target: T2, human CD70 on the surface of cells; assay: cell-based or functional assay
[4] = molecular target: T1, recombinant human CD70 (Flag-TNC-CD70); assay: inhibition ELISA: CD27-Fc binding to anti-Flag-captured Flag-TNC-CD70
Description: From selected phage transfected into TG1, individual colonies were picked randomly for growth in 96 well plates. After IPTG induction according to standard protocols periplasmic fractions (peris) containing Fabs were prepared. […] In this assay, Flag-TNC-CD70 is captured by an anti-Flag mAb and binding of CD27-Fc is detected via a biotinylated anti-CD27 mAb and strep-HRP in the absence or presence of CD70 Fabs (FIGS. 2 and 3) or CD70 mAbs (FIG. 4). In FIG. 2B it can be seen that 27B3, which has an identical VH as 9D1, but contains a somewhat different light chain, seems to block binding of CD27 to CD70 more efficiently, which was in line with the better off rate of this Fab as measured on Biacore (data not shown). Table 3 indicates the blocking potency (expressed as IC50) for the various llama-human chimeric mAbs tested in the CD70 inhibition ELISA. […] FIG. 3 is a composite of an experiment testing llama CD70 Fabs for blocking activity (in the inhibition ELISA, see white bars) and for CD70 binding (binding ELISA, black bars). For the binding ELISA, Flag-TNC-CD70 is captured by an anti-Flag mAb and binding of the Fabs is detected using an anti-myc-HRP mAb, which recognizes the MYC tag fused to the C-terminus of the Fd fragment. […]

[5] = molecular target: T3, rhesus recombinant CD70 …; assay: inhibition ELISA: CD27 binding to FLAG-TNC-rhesus CD70
From the text: In this assay, Flag-TNC-CD70 is captured by an anti-Flag mAb and binding of CD27-Fc is detected via a biotinylated anti-CD27 mAb and strep-HRP in the absence or presence of CD70 Fabs (FIGS. 2 and 3) or CD70 mAbs (FIG. 4). In FIG. 2B it can be seen that 27B3, which has an identical VH as 9D1, but contains a somewhat different light chain, seems to block binding of CD27 to CD70 more efficiently, which was in line with the better off rate of this Fab as measured on Biacore (data not shown). Table 3 indicates the blocking potency (expressed as IC50) for the various llama-human chimeric mAbs tested in the CD70 inhibition ELISA. […] FIG. 3 is a composite of an experiment testing llama CD70 Fabs for blocking activity (in the inhibition ELISA, see white bars) and for CD70 binding (binding ELISA, black bars). For the binding ELISA, Flag-TNC-CD70 is captured by an anti-Flag mAb and binding of the Fabs is detected using an anti-myc-HRP mAb, which recognizes the MYC tag fused to the C-terminus of the Fd fragment. For comparison purposes, known monoclonal antibodies to CD70 (SGN70 described in US 2010/0129362 A1, clone 1F6; and MDX69A7 described in WO2008/074004FIGS. 5A and 5B) were tested in parallel. […] Of interest is clone 59D10, which as Fab has no blocking activity, but when converted into a chimeric IgG was antagonistic (see Table 3). […]

[6] = molecular target: T3, rhesus recombinant CD70 …; assay: Biacore, Fab over immobilised rhesus CD70

Molecule	Raji co-culture assay IC50 relative to 27B3 [3]	koff [6] [s⁻¹]	also measured
MDX1411 mAb (antibody)			IC50 [1]: 0.044 µg/mL; IC50 [2]: 5.5 µg/mL
B1	0.8 fold relative to 27B3		
B2	1.2 fold relative to 27B3		
B3	1.4 fold relative to 27B3		
B4	1.8 fold relative to 27B3		
B5	1.6 fold relative to 27B3		
B6			fold less potent than 27B3 mAb [4]: 3 fold
B7			IC50 [5]: 0.135 µg/mL
B8		0.00032	
B9		0.0002	
B10		0.00018	
B11		0.0005	
B12		0.0002	
B13		0.00061	
B14		0.00029	
B15		4e-05	
